Experiments:
Assay type in all cases: biochemical
[1] = HTP-analysis of yeast culture supernatants, no challenge (MUGal hydrolysis); conditions: activity of the variant/activity of Rd4BB (SEQ ID NO: 15)
Procedure, shortened: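 GLA variants were expressed in INVSc1 yeast grown in SD-Ura broth with glucose at 30° C., and culture supernatants were collected after 66-84 h. Supernatant was mixed with McIlvaine buffer pH 4.8 and MUGal (2 mM stock) in 50 mM citrate, 200 mM KCl, pH 4.6, incubated at 37° C. for 30-180 minutes, then quenched with sodium carbonate.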

[2] = HTP-analysis of supernatants pretreated with acid (MUGal hydrolysis); conditions: activity of the variant/activity of Rd4BB (SEQ ID NO: 15); challenge at pH 3.7
Procedure, shortened: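 Yeast INVSc1 supernatant, GLA variants; acid challenge: McIlvaine pH 3.3-4.3, 37° C., 1-3 h. Assay: MUGal in McIlvaine pH 4.8 plus citrate pH 4.3, 37° C., 30-180 min, Na2CO3 stop, Ex 355/Em 448 nm.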

[3] = HTP-analysis of supernatants pretreated with base (MUGal hydrolysis); conditions: activity of the variant/activity of Rd4BB (SEQ ID NO: 15); challenge at pH 9.65
Procedure, shortened: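 Fluorescence of released 4-MU (Ex 355 nm, Em 448 nm) after carbonate quench reports MUGal hydrolysis by GLA variants secreted from INVSc1 yeast. Before the acidic (pH 4.3-4.8) 30-180 min reaction at 37° C, supernatants had been pre-incubated at pH 7.0-9.7 for 1-18 h at 37° C.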

Molecule | Relative Activity of GLA Variants After No Challenge (NC) [1] | Relative Activity of GLA Variants After Challenge at pH 3.7 [2] | Relative Activity of GLA Variants After Challenge at pH 9.65 [3]
403 (protein, Synthetic Polypeptide sequence of Variant No. 403 of mature Human GLA) LDNGLARTPTMGWLHWERFMCNLDCQEEPDSCISEKLFMEMAERMVSEGWKDAGYEYLCIDDCWMAPQRDSEGRLQADPQRFPHGIRQLANYVHSKGLKLGIYADVGNKTCAGFPGSFGYYDIDAQTFADWGVDLLKFDGCYCDSLENLADGYKHMSLALNRTGRGIVYSCEWPLYMWPFQKPNYTEIRQYCNHWRNFADIDDSWKSIKSILDWTSRNQERIVDVAGPGGWNDPDMLVIGNFGLSWDQQVTQMALWAIMAAPLFMSNDLRHISPQAKALLQDKDVIAINQDPLGKQGYQLRKGDNFEVWERPLSGDAWAVAIINRQEIGGPRSYTIPVASLGKGVACNPACFITQLLPVKRQLGFYNWTSRLKSHINPTGTVLLQLENTMQMSLKDLL | + (0.5 to 1.5 relative activity over Rd4BB (SEQ ID NO: 15)) | + (0.5 to 1.5 relative activity over Rd4BB (SEQ ID NO: 15)) | + (0.5 to 1.5 relative activity over Rd4BB (SEQ ID NO: 15))
409 (protein, Synthetic Polypeptide sequence of Variant No. 409 of mature Human GLA) LDNGLARTPTMGWLHWERFMCNLDCQEEPDSCISEKLFMEMAERMVSEGWKDAGYEYLCIDDCWMAPQRDSEGRLQADPQRFPHGIRQLANYVHSKGLKLGIYADVGNKTCAGFPGSFGYYDIDAQTFADWGVDLLKFDGCYCDSLENLADGYKHMSLALNRTGHSIVYSCEWPLYMWPFQKPNYTEIRQYCNHWRNFADIDDSWKSIKSILDWTSRNQERIVDVAGPGGWNDPDMLVIGNFGLSWDQQVTQMALWAIMAAPLFMSNDLRHISPQAKALLQDKDVIAINQDPLGKQGYQLRKGDNFEVWERPLSGDAWAVAIINRQEIGGPRSYTIPVASLGKGVACNPACFITQLLPVKRQLGFYNWTSRLKSHINPTGTVLLQLENTMQMSLKDLL | + (0.5 to 1.5 relative activity over Rd4BB (SEQ ID NO: 15)) | + (0.5 to 1.5 relative activity over Rd4BB (SEQ ID NO: 15)) | − (<0.5 relative activity over Rd4BB (SEQ ID NO: 15))
407 (protein, Synthetic Polypeptide sequence of Variant No. 407 of mature Human GLA) LDNGLARTPTMGWLHWERFMCNLDCQEEPDSCISEKLFMEMAERMVSEGWKDAGYEYLCIDDCWMAPQRDSEGRLQADPQRFPHGIRQLANYVHSKGLKLGIYADVGNKTCAGFPGSFGYYDIDAQTFADWGVDLLKFDGCYCDSLENLADGYKHMSHALNRTGRSIVYSCEWPLYMWPFQKPNYTEIRQYCNHWRNFADIDDSWKSIKSILDWTSRNQERIVDVAGPGGWNDPDMLVIGNFGLSWDQQVTQMALWAIMAAPLFMSNDLRHISPQAKALLQDKDVIAINQDPLGKQGYQLRKGDNFEVWERPLSGDAWAVAIINRQEIGGPRSYTIPVASLGKGVACNPACFITQLLPVKRQLGFYNWTSRLKSHINPTGTVLLQLENTMQMSLKDLL | + (0.5 to 1.5 relative activity over Rd4BB (SEQ ID NO: 15)) | + (0.5 to 1.5 relative activity over Rd4BB (SEQ ID NO: 15)) | − (<0.5 relative activity over Rd4BB (SEQ ID NO: 15))
406 (protein, Synthetic Polypeptide sequence of Variant No. 406 of mature Human GLA) LDNGLARTPTMGWLHWERFMCNLDCQEEPDSCISEKLFMEMAERMVSEGWKDAGYEYLCIDDCWMAPQRDSEGRLQADPQRFPHGIRQLANYVHSKGLKLGIYADVGNKTCAGFPGSFGYYDIDAQTFADWGVDLLKFDGCYCDSLENLADGYKHMSLALNKTGRSIVYSCEWPLYMWPFQKPNYTEIRQYCNHWRNFADIDDSWKSIKSILDWTSRNQERIVDVAGPGGWNDPDMLVIGNFGLSWDQQVTQMALWAIMAAPLFMSNDLRHISPQAKALLQDKDVIAINQDPLGKQGYQLRKGDNFEVWERPLSGDAWAVAIINRQEIGGPRSYTIPVASLGKGVACNPACFITQLLPVKRQLGFYNWTSRLKSHINPTGTVLLQLENTMQMSLKDLL | + (0.5 to 1.5 relative activity over Rd4BB (SEQ ID NO: 15)) | + (0.5 to 1.5 relative activity over Rd4BB (SEQ ID NO: 15)) | + (0.5 to 1.5 relative activity over Rd4BB (SEQ ID NO: 15))
404 (protein, Synthetic Polypeptide sequence of Variant No. 404 of mature Human GLA) LDNGLARTPTMGWLHWERFMCNLDCQEEPDSCISEKLFMEMAERMVSEGWKDAGYEYLCIDDCWMAPQRDSEGRLQADPQRFPHGIRQLANYVHSKGLKLGIYADVGNKTCAGFPGSFGYYDIDAQTFADWGVDLLKFDGCYCDSLENLADGYKHMSLALNRTGRFIVYSCEWPLYMWPFQKPNYTEIRQYCNHWRNFADIDDSWKSIKSILDWTSRNQERIVDVAGPGGWNDPDMLVIGNFGLSWDQQVTQMALWAIMAAPLFMSNDLRHISPQAKALLQDKDVIAINQDPLGKQGYQLRKGDNFEVWERPLSGDAWAVAIINRQEIGGPRSYTIPVASLGKGVACNPACFITQLLPVKRQLGFYNWTSRLKSHINPTGTVLLQLENTMQMSLKDLL | + (0.5 to 1.5 relative activity over Rd4BB (SEQ ID NO: 15)) | + (0.5 to 1.5 relative activity over Rd4BB (SEQ ID NO: 15)) | − (<0.5 relative activity over Rd4BB (SEQ ID NO: 15))
405 (protein, Synthetic Polypeptide sequence of Variant No. 405 of mature Human GLA) LDNGLARTPTMGWLHWERFMCNLDCQEEPDSCISEKLFMEMAERMVSEGWKDAGYEYLCIDDCWMAPQRDSEGRLQADPQRFPHGIRQLANYVHSKGLKLGIYADVGNKTCAGFPGSFGYYDIDAQTFADWGVDLLKFDGCYCDSLENLADGYKHMSEALNRTGRSIVYSCEWPLYMWPFQKPNYTEIRQYCNHWRNFADIDDSWKSIKSILDWTSRNQERIVDVAGPGGWNDPDMLVIGNFGLSWDQQVTQMALWAIMAAPLFMSNDLRHISPQAKALLQDKDVIAINQDPLGKQGYQLRKGDNFEVWERPLSGDAWAVAIINRQEIGGPRSYTIPVASLGKGVACNPACFITQLLPVKRQLGFYNWTSRLKSHINPTGTVLLQLENTMQMSLKDLL | + (0.5 to 1.5 relative activity over Rd4BB (SEQ ID NO: 15)) | ++ (>1.5 to 2.5 relative activity over Rd4BB (SEQ ID NO: 15)) | + (0.5 to 1.5 relative activity over Rd4BB (SEQ ID NO: 15))
362 (protein, Synthetic Polypeptide sequence of Variant No. 362 of mature Human GLA) LDNGLARTPTMGWLHWERFMCNLDCQEEPDSCISEKLFMEMAECMVSEGWKDAGYEYLCIDDCWMAPQRDSEGRLQADPQRFPHGIRQLANYVHSKGLKLGIYADVGNKTCAGFPGSFGYYDIDAQTFADWGVDLLKFDGCYCDSLENLADGYKHMSLALNRTGRSIVYSCEWPLYMWPFQKPNYTEIRQYCNHWRNFADIDDSWKSIKSILDWTSRNQERIVDVAGPGGWNDPDMLVIGNFGLSWDQQVTQMALWAIMAAPLFMSNDLRHISPQAKALLQDKDVIAINQDPLGKQGYQLRKGDNFEVWERPLSGDAWAVAIINRQEIGGPRSYTIPVASLGKGVACNPACFITQLLPVKRQLGFYNWTSRLKSHINPTGTVLLQLENTMQMSLKDLL | + (0.5 to 1.5 relative activity over Rd4BB (SEQ ID NO: 15)) | + (0.5 to 1.5 relative activity over Rd4BB (SEQ ID NO: 15)) | + (0.5 to 1.5 relative activity over Rd4BB (SEQ ID NO: 15))
408 (protein, Synthetic Polypeptide sequence of Variant No. 408 of mature Human GLA) LDNGLARTPTMGWLHWERFMCNLDCQEEPDSCISEKLFMEMAERMVSEGWKDAGYEYLCIDDCWMAPQRDSEGRLQADPQRFPHGIRQLANYVHSKGLKLGIYADVGNKTCAGFPGSFGYYDIDAQTFADWGVDLLKFDGCYCDSLENLADGYKHMSLALNRTGRRIVYSCEWPLYMWPFQKPNYTEIRQYCNHWRNFADIDDSWKSIKSILDWTSRNQERIVDVAGPGGWNDPDMLVIGNFGLSWDQQVTQMALWAIMAAPLFMSNDLRHISPQAKALLQDKDVIAINQDPLGKQGYQLRKGDNFEVWERPLSGDAWAVAIINRQEIGGPRSYTIPVASLGKGVACNPACFITQLLPVKRQLGFYNWTSRLKSHINPTGTVLLQLENTMQMSLKDLL | + (0.5 to 1.5 relative activity over Rd4BB (SEQ ID NO: 15)) | + (0.5 to 1.5 relative activity over Rd4BB (SEQ ID NO: 15)) | + (0.5 to 1.5 relative activity over Rd4BB (SEQ ID NO: 15))

— patent US11278600B2, “Human alpha-galactosidase variants” (Codexis, Inc., priority 2014, dated 2022)
